Assay results published in publication PMC2894858 (PLoS ONE, 2010).
Non-standard residues stand in square brackets, D forms with d. No end group written: not given here. Aib = CC(C)(N)C(=O)O

Molecular target: botulinum neurotoxin serotype A light chain (Clostridium botulinum, UniProt P0DPI1 1-420)
Assay: HPLC-based protease inhibition assay (Dixon plots)
Details: both partners purified

Chain of botulinum neurotoxin serotype A light chain (P0DPI1 1-420): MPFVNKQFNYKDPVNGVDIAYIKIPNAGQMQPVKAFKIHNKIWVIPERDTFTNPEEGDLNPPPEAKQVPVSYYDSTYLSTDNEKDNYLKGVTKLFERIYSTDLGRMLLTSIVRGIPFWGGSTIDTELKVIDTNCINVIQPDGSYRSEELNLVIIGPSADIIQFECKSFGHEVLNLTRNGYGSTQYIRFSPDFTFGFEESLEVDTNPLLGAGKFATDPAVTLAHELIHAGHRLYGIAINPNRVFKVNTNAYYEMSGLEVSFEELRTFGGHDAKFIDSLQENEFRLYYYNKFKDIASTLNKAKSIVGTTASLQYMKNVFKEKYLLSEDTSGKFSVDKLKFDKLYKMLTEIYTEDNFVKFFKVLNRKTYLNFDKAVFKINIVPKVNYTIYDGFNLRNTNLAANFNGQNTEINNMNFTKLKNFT

Binder | Ki [nM]
RRF[Aib]AML-NH2 [JTH-NB72-39] | 638
RRW[Aib]AML-NH2 (not fully specified) [JTH-NB72-38] | 990
